{
  "source": "patent US9371362B2",
  "about": "“Prostate specific antigen agents and methods of using same for prostate cancer imaging” (VisEn Medical, Inc., priority 2012, dated 2016)",
  "key": {"active PSA": {"target": "active PSA (Homo sapiens, UniProt P07288)", "sequence (P07288 25-261)": "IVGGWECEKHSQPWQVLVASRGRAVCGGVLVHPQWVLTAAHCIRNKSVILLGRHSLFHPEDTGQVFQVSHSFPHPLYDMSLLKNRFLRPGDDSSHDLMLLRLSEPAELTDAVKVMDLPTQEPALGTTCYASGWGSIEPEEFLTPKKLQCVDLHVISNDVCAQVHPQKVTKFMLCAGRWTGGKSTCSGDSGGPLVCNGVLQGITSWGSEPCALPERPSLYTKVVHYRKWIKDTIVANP", "experiment": "In vitro activation (cleavage) of agent by enzymatically active PSA, kinetic fluorescence reading", "type": "biochemical", "conditions": "0.5 μM agent, 0.1 μM activated enzyme, TCNB buffer pH 7.5", "experimental": "(§1) Data in FIG. 1 depict activation of the prostate specific antigen activatable agents (compound A10).\n(§2) Kinetic fluorescence readings were performed in a Gemini fluorescence plate reader at different times after adding the enzyme.\n(§3) In this experiment, fluorescence is only associated with the test agents (compound A10) in the prescence of active PSA described herein."}, "complexed PSA": {"target": "complexed PSA (Homo sapiens, UniProt P07288)", "sequence (P07288 25-261)": "as above", "sequence (P01011 24-423 partner)": "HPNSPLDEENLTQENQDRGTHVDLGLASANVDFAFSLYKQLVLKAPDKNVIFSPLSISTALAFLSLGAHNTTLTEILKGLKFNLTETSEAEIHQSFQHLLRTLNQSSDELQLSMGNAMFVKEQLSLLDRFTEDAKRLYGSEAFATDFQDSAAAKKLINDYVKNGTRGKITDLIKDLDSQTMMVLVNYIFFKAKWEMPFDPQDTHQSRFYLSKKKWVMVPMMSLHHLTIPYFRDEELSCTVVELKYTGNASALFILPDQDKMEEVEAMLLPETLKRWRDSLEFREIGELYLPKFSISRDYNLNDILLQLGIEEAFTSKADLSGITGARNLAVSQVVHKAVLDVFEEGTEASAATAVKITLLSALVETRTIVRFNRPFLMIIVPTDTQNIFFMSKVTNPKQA", "experiment": "In vitro activation of agent by complexed (inactive) PSA, kinetic fluorescence reading", "type": "biochemical", "conditions": "0.5 μM agent, optimized buffer pH 7.5", "experimental": "as §1, §2, §3"}, "[1]": {"tested_on": "human prostate PSA+ LNCaP tumor", "experiment": "In vivo imaging of prostate cancer, FMT2500 reflectance and tomography, IVIS Spectrum", "conditions": "male Nu/Nu mice, 2 nmoles intravenously, imaged 6 hours later", "experimental": "FIG. 2A depicts epi-fluorescent reflectance and tomographic images for sites of active PSA detected in prostate cancer expressing mice six hours post-injection using a prostate specific antigen activatable agent (compound A10).\nAs depicted in FIG. 2A, imaging studies were performed in human prostate PSA^+ LNCaP tumor-bearing male Nu/Nu mice. The mice were injected intravenously with 2 nmoles of test agent (compound A10) and were imaged 6 hours later on the FMT2500 (PerkinElmer Inc., Waltham, Mass.) (FMT 2D for epifluorescence, FMT 3D for tomography) in reflectance and tomographic modes, and on the IVIS Spectrum (PerkinElmer Inc., Waltham, Mass.)."}, "[2]": {"tested_on": "LNCaP tumors (PSA+) and PC3 (PSA−) tumors", "experiment": "In vivo specificity imaging, LNCaP (PSA+) versus PC3 (PSA−) tumors, FMT2500", "conditions": "male Nu/Nu mice, 2 nmoles intravenously, imaged 24 hours later", "experimental": "FIG. 2B is a histogram comparing fluorescence between prostate cancer expressing (PSA positive) and control (PSA negative) mice injected with the prostate specific antigen activatable agent (compound A10) and imaged tomographically.\nImaging studies were performed in LNCaP tumors (PSA+) and PC3 (PSA−) tumors tumor-bearing male Nu/Nu mice. The mice were injected intravenously with 2 nmoles of compound A10 and imaged 24 hours later on the FMT2500 (PerkinElmer Inc., Waltham, Mass.). Tumor fluorescence from positive and control mice was quantified and plotted."}},
  "note": "Non-standard residues stand in square brackets, D forms with d. Y‑mPEG ~40 kDa = Y-mPEG amine, ~40 kDa, coupled at C-terminal carboxyl; Hyp = O=C(O)[C@@H]1C[C@@H](O)CN1; Chg = N[C@H](C(=O)O)C1CCCCC1",
  "data": [
    {"substance": "A10 (Ac-K[Hyp]SS[Chg]QSSK-{Y‑mPEG ~40 kDa}; also: conjugated with NHS ester of fluorophore F8, sites not given here) [Compound A10]", "values": [
      {"measurement": "activation (fluorescence) in the presence of active PSA", "setting": "active PSA", "result": "activated in the presence of active PSA"},
      {"measurement": "activation (fluorescence) in the presence of complexed PSA", "setting": "complexed PSA", "result": "not complexed PSA"},
      {"measurement": "detection of sites of enzymatically active PSA in vivo", "setting": "[1]", "result": "Sites of active PSA are detected in the same locations for both reflectance and tomographic imaging"},
      {"measurement": "specificity of tumor fluorescence for PSA positive over PSA negative tumors", "setting": "[2]", "result": "specificity the prostate specific antigen activatable agents have for tumors containing enzymatically active PSA over PSA negative tumors in vivo"}
    ]}
  ]
}
